Publication PMC4072508, “Genome-Wide Prediction and Validation of Peptides That Bind Human Prosurvival Bcl-2 Proteins” (PLoS Computational Biology, 2014)
Where “and” joins values, the source holds several entries; their conditions need not be identical. Equal values may be shown once. Residues, ends and D or L forms follow the SMILES beside them. *: point of attachment. 5FAM = O=C1OC2(c3ccc(O)cc3Oc3cc(O)ccc32)c2ccc(C(=O)*)cc21

Assays:
Bcl-xL = target: T1, Bcl-xL (Homo sapiens, UniProt Q07817); test: LUMIER full-length protein interaction; type: binding; conditions: LUMIER results for Bcl-xL; for z-score 1.1: experiment 1, duplicate 1; for z-score 1.2: experiment 1, duplicate 2; for z-score 2.1: experiment 2, duplicate 1; for z-score 2.2: experiment 2, duplicate 2
T1 construct: myc-Bcl-xL SPOT array & FP; made in house
T1 sequence (Q07817 with tags, fused parts or gaps): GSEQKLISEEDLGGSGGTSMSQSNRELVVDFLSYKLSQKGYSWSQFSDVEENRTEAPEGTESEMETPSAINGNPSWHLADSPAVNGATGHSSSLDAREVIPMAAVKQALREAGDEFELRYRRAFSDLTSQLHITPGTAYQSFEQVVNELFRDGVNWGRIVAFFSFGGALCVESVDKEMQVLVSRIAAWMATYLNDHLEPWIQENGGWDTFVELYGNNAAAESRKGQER
Protocol: (§1) The LUMIER assay was carried out as previously described with the following modifications. A stable cell line expressing receptor tagged on the N-terminus with Nanoluc luciferase was created (the prey). […] Each bait construct was transfected into the receptor-luciferase cells in a 96-well format and after 48 hours the cells were lysed and transferred to 384-well plates coated with anti-FLAG. After incubation and washing, luminescence was measured to quantify how much receptor-luciferase was captured by the bait protein. Anti-Flag ELISA signal was used to exclude bait proteins that were not expressed. The experiment was carried out two times, each in duplicate.

Mcl-1 = target: T2, Mcl-1 (Homo sapiens, UniProt Q07820); test: LUMIER full-length protein interaction; type: binding; conditions: LUMIER results for Mcl-1, Z-score relative to Gaussian fit of the data; for z-score 1.2: experiment 1, duplicate 2; for z-score 2.1: experiment 2, duplicate 1; for z-score 2.2: experiment 2, duplicate 2
T2 construct: myc-Mcl-1 SPOT array & FP; made in house
T2 sequence (Q07820 with tags, fused parts or gaps): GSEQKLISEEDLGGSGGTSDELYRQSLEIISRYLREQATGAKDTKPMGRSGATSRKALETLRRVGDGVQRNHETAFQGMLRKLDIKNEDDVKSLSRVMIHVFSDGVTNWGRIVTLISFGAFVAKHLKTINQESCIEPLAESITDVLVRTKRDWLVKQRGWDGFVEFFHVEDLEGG
Protocol: as §1

[1] = Z-score relative to Gaussian fit of the data
[2] = Z-score of the interaction relative to the Gaussian fit of the data

Molecule | z-score 1.1 (Bcl-xL; [1]) | z-score 1.2 (Bcl-xL; [1]) | z-score 2.1 (Bcl-xL; [1]) | z-score 2.2 (Bcl-xL; [1]) | z-score 1.2 (Mcl-1) | z-score 2.1 (Mcl-1) | z-score 2.2 (Mcl-1) | z-score 1.1 (Bcl-xL; [2]) | z-score 1.2 (Bcl-xL; [2]) | z-score 2.1 (Bcl-xL; [2]) | z-score 2.2 (Bcl-xL; [2])
CC[C@H](C)[C@H](NC(=O)[C@@H]1CCCN1C(=O)[C@H](CCCNC(=N)N)NC(=O)[C@H](CCCNC(=N)N)NC(=O)[C@@H]1CCCN1C(=O)[C@H](CC(N)=O)NC(=O)[C@H](C)NC(=O)[C@H](CC(C)C)NC(=O)[C@H](CCSC)NC(=O)[C@H](CC(=O)O)NC(=O)[C@H](CO)NC(=O)[C@H](Cc1c[nH]c2ccccc12)NC(=O)[C@H](Cc1c[nH]cn1)NC(=O)[C@H](CCCNC(=N)N)NC(=O)[C@H](CC(C)C)NC(=O)[C@H](CCC(=O)O)NC(=O)[C@H](C)NC(=O)CNC(=O)[C@@H](NC(=O)[C@H](CO)NC(=O)[C@H](CC(N)=O)NC(=O)[C@H](Cc1ccc(O)cc1)NC(=O)CNC(=O)[C@@H](NC(=O)[C@H](Cc1ccccc1)NC(=O)c1ccc2c(c1)C(=O)OC21c2ccc(O)cc2Oc2cc(O)ccc21)C(C)C)[C@@H](C)O)C(=O)N[C@@H](C)C(N)=O [SYT1] (5FAM-FVGYNSTGAELRHWSDMLANPRRPIA-NH2) | -0.3372 | -0.9542 | 2.574 | 0.6781 | -0.6598 | 0.132 | -0.2801 | – | – | – | –
ACN9 (LQLHRVLPPDLKSLGDQYVKDEFRRH) | 2.487 | -0.8795 | 0.2924 | 1.441 | 0.7914 | 1.721 | 2.179 | – | – | – | –
ATP6AP2 (RDASKILVDALQKFADDMYSLYGGNA) | – | – | 1.607 and 2.423 | – | 0.9409 and 0.8269 | 2.599 and 2.298 | 1.567 and 1.468 | – | – | – | –
BAK1 (SSTMGQVGRQLAIIGDDINRRYDSEF) | – | – | – | – | 6.48 | 5.961 | 6.848 | 0.8883 | 2.921 | 1.064 | 1.82
BBS10 (RMIVDCVSSHLKKTGDGAKTFIIFLC) | 1.141 and 1.702 | – | – | – | – | 0.6411 and 1.2239 | – | – | – | – | –
BCL2L11 (MRPEIWIAQELRRIGDEFNAYYARRV) | – | – | – | – | 9.774 | 11.6048 | 12.4336 | – | – | – | –
C7orf26 (FDHMVPLVEEINRLADELNPLNASQE) | 0.6785 | 0.5183 | 0.5393 | 0.7734 | 0.6167 | 1.59 | 1.598 | – | – | – | –
CASP8 (PFKKMDFSRNLYDIGEQLDSEDLASL) | 0.03556 | -1.065 | 0.3161 | -0.06353 | -0.8504 | -0.06643 | -0.03009 | – | – | – | –
CCDC57 (QAGPVSSGLALRKLGDRVQLLNLLVT) | – | – | – | – | 0.8015 | 1.282 | 1.811 | 2.807 | 1.916 | 0.2364 | 0.8316
COL2A1 (VLLTLLVAAVLRCQGQDVQEAGSCVQ) | 1.515 | -1.523 | 1.61 | 2.141 | – | 1.806 | 2.677 | – | – | – | –
CTSL2 (SQGKHGFTMAMNAFGDMTNEEFRQMM) | -0.437 | -1.625 | 0.4619 | – | -0.01526 | 0.02916 | -0.562 | – | – | – | –
CYBB (APEEDFFSIHIRIVGDWTEGLFNACG) | 0.3673 | -1.779 | 0.009756 | -0.6661 | 0.6104 | -0.8677 | -1.447 | – | – | – | –
CYP2A6 (MPYMEAVIHEIQRFGDVIPMSLARRV) | -0.01422 | -0.04633 | -0.5606 | -0.592 | -0.6263 | -0.8736 | -1.0005 | – | – | – | –
DHX30 (PVESSWIAPELRLQSDDILPLGKDSG) | 5.589 | 0.08513 | 1.44 | 1.097 | 0.1736 | 1.579 | 0.3173 | – | – | – | –
DPF3 (SCMATVIHNPLKALGDQFYKEAIEHC) | 4.341 | 0.09731 | 0.3964 | 0.9401 | 0.1193 | -0.01021 | -0.07055 | – | – | – | –
DSN1 (RAKASSLSEELKHFADGLETDGTLQK) | -1.115 | 0.4795 | -0.01103 | -0.4978 | -0.5012 | 0.1019 | 0.2829 | – | – | – | –
DZIP3 (NGGLLEFHKSLQEIGDKNDHWFDIDP) | 0.7197 | 0.5899 | 1.027 | -0.02772 | 0.5092 | 0.307 | 0.2898 | – | – | – | –
EXOC4 (MQTLSELAKSFQDMADRCLLVLHLEV) | 0.7648 | -1.829 | – | -0.5885 | -0.5001 | 0.001659 | -1.314 | – | – | – | –
FADD (APGEEDLCAAFNVICDNVGKDWRRLA) | -1.0584 | -0.5034 | 0.7016 | 0.6909 | 0.7662 | 0.7867 | – | – | – | – | –
FBXL3 (CHGLRELALNYHLLSDELLLALSSEK) | -0.4003 | -1.2734 | 2.098 | 0.0146 | -0.6557 | -0.4574 | -0.175 | – | – | – | –
FBXW5 (LTETSLISGNLHRIGDITSCSVLWLN) | – | – | 1.152 and 2.217 | – | – | – | – | – | – | – | –
FOXI1 (PDKRLTLSQIYQYVADNFPFYNKSKA) | 4.354 | -0.599 | 1.203 | 1.501 | 0.03188 | – | -0.4966 | – | – | – | –
FUT8 (KKLKNLEGNELQRHADEFLLDLGHHE) | -1.728 | -2.609 | 2.234 | -0.644 | -0.4768 | -0.1664 | -0.7985 | – | – | – | –
GBP6 (NDDTPWIARTLDNLADELTAILSAPA) | 0.2217 | -0.6971 | -0.4961 | -0.5692 | 0.7158 | -0.81 | -1.083 | – | – | – | –
